# Results reported in the DeepSol protein solubility set.
# Assay: soluble on expression in E. coli; label from the status in PepcDB or PDB records
row,Sequence,soluble on expression in E. coli
1,RLQPIIVPGWQGSGPGHWQTHWSRTLPHAVRLQQRDWHQPQRAEWVAALAAAVDAAPTPVLLVAHSLGCLVSAALPIALRAKVAGALLVAPADVERPGAPAAIAAFGPVPRQSLPYQSVVIASDDDPYCRLERARQFAQDWGSRLVVLQGAGHINADSQLGAWPQGLKQLAALRRRACW,not soluble
2,MSYQIQYNDFPTFLRKHFPYKVQKISLNAGFTCPNRDGTKGWGGCTYCNNQTFNPDYCRTEKSIATQLEEGKCFFAHKYPEMKYLAYFQAYTNTYAELEGLKRKYEEALQVDGVVGLVIGTRPDCMPEELLQYLEELNRHTFLMVEYGIESASDETLRRINRGHTYADTVEAVQRTAACGILTGGHVILGLPGETHDTMVEQAGILSALPLSTLKIHQLQLIRGTRMAHEYEENPE,not soluble
3,MGSSHHHHHHSSGLVPRGSMEFVKDLKTPEDYINNELKYGAHNYDPIPVVLKRAKGVFVYDVNDKRYYDFLSAYSSVNQGHCHPNILNAMINQAKNLTICSRAFFSVPLGICERYLTNLLGYDKVLMMNTGAEANETAYKLCRKWGYEVKKIPENMAKIVVCKNNFSGRTLGCISASTTKKCTSNFGPFAPQFSKVPYDDLEALEEELKDPNVCAFIVEPIQGEAGVIVPSDNYLQGVYDICKKYNVLFVADEVQTGLGRTGKLLCVHHYNVKPDVILLGKALSGGHYPISAVLANDDIMLVIKPGEHGSTYGGNPLAASICVEALNVLINEKLCENAEKLGGPFLENLKRELKDSKIVRDVRGKGLLCAIEFKNELVNVLDICLKLKENGLITRDVHDKTIRLTPPLCITKEQLDECTEIIVKTVKFFDERF,soluble
4,TLEPTQSVQNYMIQADSTEGSLQNDWLIMATKAAIQANQLDQADLLIKRLARQQLTEVQQAEWQLARATIQQKQGDYSQLLQLLNFKPWWKLPNEQWKDYYSLRADAYQSLNQPFEANRQLVAFSQYASSAEQREISSRIWMNFGSYSEYELTSLQTEPSEDVLDGWLQLAVYAKTLSGNLSQLKNTLERWLNENPSHPAAIYTPEEIQNILSLDIVKPNNTALLLPLTGKFAPQAQLIRDGFVFAMMNDRNRDPSATLTVIDTNAYSADEVKQRLINENIDFVVGPLQKENVELLQTTMDGSANSPAIPALALNIPEDVQPGTDICYLALSPEQEVAQAAKYLFSEGYSFPLILAPKGSYGERVVQAFNEEWSKYSSNKVATSYFGDKRQLQKDINDVFGLQESKQRIAQMQSLMRIKLETQPRSRRDVDAVYIVARSSELTLIKPFIEVAINPDAKPPKLFSNSRSNSGGATYEDLTGIIYSDIPLLVNPDPIVTAEMNELWADQSNMEKRLKALGMDAYKLIGELPQMKVVPGYSVSGQTGTLSIDNNCVVQRELSWAERGAL,not soluble
5,MGSDKIHHHHHHYYLIVSQLLGDTASVKLLVPPGANPHLFSLKPSDAKTLEEADLIVANGLGLEPYLEKYREKTVFVSDFIPALLLIDDNPHIWLDPFFLKYYIVPGLYQVLIEKFPEKQSEIKQKAEEIVSGLDTVIRDSFKALLPYTGKTVVMAHPSFTYFFKEFGLELITLSSGHEHSTSFSTIKEILRKKEQIVALFREPQQPAEILSSLEKELRMKSFVLDPLGVNGEKTIVELLRKNLSVIQEALK,not soluble
6,MSLAARQTVTDVDSFSKELMTASPDLLGSMVKAFAEALMGAEVDGICNAEYGEISPERVNRRNGYRAREWDTRAGTIELAVPKLRQGSYFPEWLLTRRRRAEQALISVVATSYLLGVSTRRVDKLVEQLGVAHISKSQVSVLAKHLDTQVEAFRSRPLDAGPYRFVQADALTMKVREDGRVINVHCLLAVGVNGDGHREILGLDVVSSEDGAGWLAFFRGLVARGLSGVRLVTSDAHRGLVNAIGSTLPGASWQRCRTHYLRDLLTMTPKSSQPWVATLVRTVFDQADANEVGGQFDRVTEALSEKLPKAADHLSGAKADLLAFTTYPREVWRQIWSSNPQERLNKEIRRRTDVVGIFPDRDAIIRLVGAVLAEQHDEWIETHRYFGLEILAKVDATNKKSDTPEIGVTEGHHHHHH,soluble
7,MDSSSISSLLEDLKHSDALVREQATKKLWRIWFQQKGMYGLEKIDQSQKLLDAGEITEAEVMLTQLIQEQPDFAEAWNRRAFLYYSMGEYQKSLADCQMVIQINPVHFGALHGIGLCYAALGKYAKAIKAFKRALEIQPYSLVNQKLILECTFRLSLEHHHHHH,not soluble
8,MSNTVTLRADGRLFTGWTSVSVTRSIESVAGYFELGVNVPPGTDLSGLAPGKKFTLEIGGQIVCTGYIDSRRRQMTADSMKITVAGRDKTADLIDCAAVYSGGQWKNRTLEQIARDLCAPYGVTVRWELSDKESSAAFPGFTLDHSETVYEALVRASRARGVLMTSNAAGELVFSRAASTATDELVLGENLLTLDFEEDFRDRFSEYTVKGYARANGAEGDDIDAKSIVSRKGTATDSDVTRYRPMIIIADSKITAKDAQARALREQRRRLAKSITFEAEIDGWTRKDGQLWMPNLLVTIDASKYAIKTTELLVSKVTLILNDQDGLKTRVSLAPREGFLVPVESDRKNRKGGDSNGGIDALVEDYYRRHPEKTPPWKE,soluble
9,MTAPFNALLIANRGEIAIRIARACADLGIRSVAVFAEDDAASLHVRKADVALPLAGRGVAAYLDMDRLVALALEQGCEAIHPGYGFLAENGEFARRCQRAGIHFVGPQAEVLDLFGDKAAARALAERLEVPLVAGINRAVSVEEAEAFLEGLGDGAAVMLKALAGGGGRGMRAVEEVAQLADAYRRCRAEAQAAFGRDELYVEQRVARARHIEVQVLGDGSGAVSHLWERDCSLQRRQQKLLEIAPSPDLPEATREALIDCALRMAGAVRYRGIGTFEFLVDDERPGRFYFMEANPRIQVEHTVTEEVTGVDLLHAQLRLAAGMELAALGLERPPAIGGCAVQLRINLETLAADGSARPAVGTIGAYEPPSGPGLRVDGYGYAGYRVSPSYDSLLAKLVVRGADYPAALRRAYRALCEFRLEGVASNLDLLRNLLLHPAVQANRVDTRFVESHLETLLAPIPASHPRLRAECPLAEDAAPARVEAPLGSLPLSAPSSGVLVALEVADGERVRAGQRVAILEAMKMEFEVKAPGGGIVRRLAASLGEPLEEGATLLFLEPTEDDDEQAPTEQALDLAHIRADLAEVLERQAALGDERRPQALARRRKTGQRTARENVLDLLDEGSFSEYGGFALAAQRRRRSAEELLELSPADGLVAGTGTVGAASFGVQAARCLVLAYDYTVFAGTQGVMNHKKTDRLLGLAEQWRLPLVLFAEGGGGRPGDTDFVGVAGLDCHTFVGMARLSGLVPLVGVVSGRCFAGNAALLGCCDVIIATRDATIGMAGPAMIEGGGLGRFAAEEVGPTGVQGPNGVIDVLVEDEAEAVAVARRYLGYFQGPLPDWSCADQRELRHLVPENRLRAYDIRQAIEVLADRGSVLELRRQFAPGLVTALLRIEGRAFGLIANNPGHLGGAIDAAAGDKAARFMQLCDAFDIPIVSLCDTPGFMVGPEAEKQATVRHVSRMFVSAASLTVPFFTVVLRKGYGLGAQAMAAGSFHSPLFTVAWPSGEFGAMGLEGAVRLGFAKELAAEEDPQRREALFRGMVDKAYRNGKALNMASYLEIDAVIDPAETRAWLLRGLAVAGEPAPRAGRKRPF,not soluble
10,MGSDKIHHHHHHMNKKLLNKVMKKLASSNVVISPTVKSSSTSLSMQKKPETEQVQQKLEQYLLSRYHFRFNLLTEQTECCKKDADTPIYKVISQRTLNSLCLEARARHINCWDKDVSRFVNSEQMPDYHPLLSYMNTLPEWDGKDRVTPLAQRISTKDFWVNSFHRWMLGVTAQWSGRMDRCANAVAPMLVSSEQGRCKSTFCELLMPDSLKDYYTDSFELTGQAGCEQKLAFFGLINLDEYDRLSPQKLPLLKNLMQMKKLDFRKSHRSSYSHLPRMASFIGTSNRKALLTDPSGSRRYFFAEVKEKIDCSPLEHKQLFAQLKAELDEGKRYWFSAAEESELKLRNQAYYALPTEAEMILHCFRLPEKGEDFKLYSAVCLFNILLKRYPAAMRGITINKMGRIMNSLGAERMHTTTGNMYKLVALAG,not soluble
11,ATQSPGDSRRLSIQRAIQSLVHAAQCRNANCSLPSCQKMKRVVQHTKGCKRKTNGGCPICKQLIALAAYHAKHCQENKCPVPFCLNIKQKLRQQQLQHRLQQAQMLRRRMASMQ,soluble
12,MQINKDELIKMGNHLKEARLSKQLTQEELARLSNISQATIVKYENGLRSISKKNDRILSDVLGAESFIKDMIQRKQQVLIDLEKYQTKNIFSREDLSKKLGIEISLLNKFLNQSRPLSKNAIVKITQLLSNEGKEILMDIKQEDGSFKLPIIDKIAMGKRIQEIRKNRGETLEKFGKNFTRPAGKNVVNRWEKGTNIPDIERLMNVAYLGKVAVPYILYGETFSKMLKKGSRISKFEKLDSFRMGLRLRKIRRDYRLEREDFGKFFSPPITKWSMDKYENGKDIPNTDRIIQYAYIGKVSLNFLIYGVN,not soluble
13,EVQLVESGGGLVKPGGSLKLSCAASGFAFSSYDMSWVRQTPEKRLEWVAYISSGGGSTYYPDTVKGRFTISRDNAKNTLYLQMSSLKSEDTAMYYCARPDYRSYAMDYWGQGTSVTVSSAKTTAPSVYPLAPVCGDTTGSSVTLGCLVKGYFPEPVTLTWNSGSLSSGVHTFPAVLQSDLYTLSSSVTVTSSTWPSQSITCNVAHPASSTKVDKKIEPRGP,soluble
14,MSLDKNDVVKKILESKKYENLDSDIVEKVVSISEKKYKLKEVENYSKKKLHQIWGSYYSAYPNWDKLLKKYNQGQLSIEDLLKIHSSTNERVATLNDFYTYVFGNIKHVSSILDFGCGFNPLALYQWNENEKIIYHAYDIDRAEIAFLSSIIGKLKTTIKYRFLNKESDVYKGTYDVVFLLKMLPVLKQQDVNILDFLQLFHTQNFVISFPIKSLSGKEKGMEENYQLWFESFTKGWIKILDSKVIGNELVYITSGFQKEGHHHHHH,soluble
15,MAYKYDRDLEFLKQLESSDLLDLFEVLVFGKDGEKRHNEKLTSSIEYKRHGDDYAKYAERIAEELQYYGSNSFASFIKGEGVLYKEILCDVCDKLKVNYNKKTETTLIEQNMLSKILERSLEEMDDEEVKEMCDELSIKNTDNLNRQALSAATLTLFKMGGFKSYQLAVIVANAVAKTILGRGLSLAGNQVLTRTLSFLTGPVGWIITGVWTAIDIAGPAYRVTIPACIVVATLRLKTQQANGDKKSLQIESI,not soluble
16,MKKVYFNHDGGVDDLVSLFLLLQMDNVELTGVSVIPADCYLEPAMSASRKIIDRFGKNTIEVAASNSRGKNPFPKDWRMHAFYVDALPILNESGKVVTHVAAKPAHHHLIETLLQTEEKTTLLFTGPLTDLARALYEAPIIENKIKRLVWMGGTFRTAGNVHEPEHDGTAEWNSFWDPEAVARVWEANIEIDLITLESTNQVPLTIDIREQWAKERKYIGIDFLGQCYAIVPPLVHFAKNSTYYLWDVLTAAFVGKADLAKVQTINSIVHTYGPSQGRTVETDDGRPVHVVYDVNHDRFFDYITRLAKKVST,soluble
17,MGVSPAAPASGIRRPCYLVLSSHDFRTPRRANIHFITDQLALRGTTRFFSLRYSRLSRMKGDMRLPLDDTANTVVSHNGVDCYLWRTTVHPFNTRRSWLRPVEDAMFRWYAAHPPKQLLDWMRESDVIVFESGIAVAFIELAKRVNPAAKLVYRASDGLSTINVASYIEREFDRVAPTLDVIALVSPAMAAEVVSRDNVFHVGHGVDHNLDQLGDPSPYAEGIHAVAVGSMLFDPEFFVVASKAFPQVTFHVIGSGMGRHPGYGDNVIVYGEMKHAQTIGYIKHARFGIAPYASEQVPVYLADSSMKLLQYDFFGLPAVCPNAVVGPYKSRFGYTPGNADSVIAAITQALEAPRVRYRQCLNWSDTTDRVLDPRAYPETRLYPHPPTAAPQLSSEAALSHHHHHHH,soluble
18,MGSDKIHHHHHHMAKERALTLEALRVMDAIDRRGSFAAAADELGRVPSALSYTMQKLEEELDVVLFDRSGHRTKFTNVGRMLLERGRVLLEAADKLTTDAEALARGWETHLTIVTEALVPTPAFFPLIDKLAAKANTQLAIITEVLAGAWERLEQGRADIVIAPDMHFRSSSEINSRKLYTLMNVYVAAPDHPIHQEPEPLSEVTRVKYRGIAVADTARERPVLTVQLLDKQPRLTVSTIEDKRQALLAGLGVATMPYPMVEKDIAEGRLRVVSPESTSEIDIIMAWRRDSMGEAKSWCLREIPKLFNGK,not soluble
